Data as given in patent publication US20240400677A1 (ELECTRA THERAPEUTICS, published 2024).
Substitutions are numbered along the chain they refer to.

T1: cynomolgus monkey SIRPγ on CHO cells (cynomolgus monkey, UniProt Q9P1W8 29-386 (human entry))
T1 construct: also called Cyno SIRPγ CHO
T1 chain: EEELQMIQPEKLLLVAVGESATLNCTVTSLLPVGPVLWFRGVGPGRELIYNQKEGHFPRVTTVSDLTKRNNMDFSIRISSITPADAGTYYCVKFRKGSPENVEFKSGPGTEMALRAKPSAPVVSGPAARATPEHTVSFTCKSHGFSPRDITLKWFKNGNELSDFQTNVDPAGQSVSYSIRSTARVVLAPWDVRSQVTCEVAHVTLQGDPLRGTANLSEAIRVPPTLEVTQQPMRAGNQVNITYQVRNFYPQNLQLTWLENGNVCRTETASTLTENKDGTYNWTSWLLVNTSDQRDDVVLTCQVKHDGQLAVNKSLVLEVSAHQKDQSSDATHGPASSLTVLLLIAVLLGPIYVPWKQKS

T2: cynomolgus monkey SIRPα on CHO cells (cynomolgus monkey, UniProt A0A2K5VYQ9 31-507)
T2 construct: whole, on cells; also called Cyno SIRPα CHO
T2 sequence: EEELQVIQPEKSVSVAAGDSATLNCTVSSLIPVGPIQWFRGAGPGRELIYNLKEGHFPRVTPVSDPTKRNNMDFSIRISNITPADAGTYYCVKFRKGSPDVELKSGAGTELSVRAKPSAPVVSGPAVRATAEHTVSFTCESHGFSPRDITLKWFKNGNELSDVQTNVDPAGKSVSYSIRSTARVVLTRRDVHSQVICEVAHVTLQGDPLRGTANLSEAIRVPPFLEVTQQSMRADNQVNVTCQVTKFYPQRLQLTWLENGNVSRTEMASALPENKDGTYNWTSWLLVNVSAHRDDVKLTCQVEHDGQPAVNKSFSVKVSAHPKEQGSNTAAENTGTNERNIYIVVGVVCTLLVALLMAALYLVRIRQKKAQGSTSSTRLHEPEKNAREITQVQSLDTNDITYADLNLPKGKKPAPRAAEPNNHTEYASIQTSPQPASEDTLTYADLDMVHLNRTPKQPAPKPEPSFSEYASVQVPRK

B1: Antibody 38 (scFv, V domains shown)
VH: QVQLVQSGAEVKKPGASVKVSCKASGGTFSSYDINWVRQAPGQGLEWMGWMNPNSGNTGYAQKFQGRVTMTRDTSTSTVYMELSSLRSEDTAVYYCARDLTLYCSSTSCLDAFDYWGQGTLVTVSS
VL: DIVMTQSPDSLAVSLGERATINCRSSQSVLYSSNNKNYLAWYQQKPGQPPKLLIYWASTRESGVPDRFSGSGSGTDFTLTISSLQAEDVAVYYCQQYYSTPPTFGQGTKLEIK
notes: scFv in crude PPE, V5/myc-tagged
B2: Antibody 39 (scFv, V domains shown)
VH: QVQLVQSGAEVKKPGASVKVSCKASGGTFSNYGFSWVRQAPGQGLEWMGWMSPSSGNTGYAQKFQGRVTMTRDTSTSTVYMELSSLRSEDTAVYYCARERSGSYFDYWGQGTLVTVSS
VL: EIVMTQSPATLSVSPGERATLSCRASQSVSSYLAWYQQKPGQAPRLLIYGTSTRATGIPARFSGSGSGTEFTLTISSLQSEDFAVYYCQQYGSLPFTFGQGTRLEIK
notes: as for B1
B3: Antibody 44 (scFv, V domains shown)
VH: QVQLVQSGAEVKKPGSSVKVSCKASGGTFSKIAVSWVRQAPGQGLEWMGLINPNSGGTDYAQKFQGRVTITADESTSTAYMELSSLRSEDTAVYYCAKDFRGGDYYYYGMDVWGQGTTVTVSS
VL: B2 VL with Y32N, T51A, G92N, S93T, L94Y, F96I, R103K, L104V
notes: as for B1
B4: Antibody 53 (scFv, V domains shown)
VH: QVQLVQSGAEVKKPGASVKVSCKASGHTFNNNYIHWVRQAPGQGLEWMGIINPSGGSTSYAQKFQGRVTMTRDTSTSTVYMELSSLRSEDTAVYYCARQIQDYGYYYYGMDVWGQGTTVTVSS
VL: B2 VL with S31K, G50A, T51I, T53A, T56A, G92Y, L94S, F96P, R103K, L104V
notes: as for B1
B5: Antibody 36 (scFv, V domains shown)
VH: QVQLVQSGAEVKKPGASVKVSCKASGYTFTDNYLHWVRQAPGQGLEWMGIIETSGGSTDYAQKFQGRVTMTRDTSTSTVYMELSSLRSEDTAVYYCARSFGGYSYDDAFDIWGQGTTVTVSS
VL: DIQMTQSPSSLSASVGDRVTITCQASQGISNYLNWYQQKPGKAPKLLIYAASSLQSGVPSRFSGSGSGTDFTLTISSLQPEDFATYYCQQSYSSPYTFGQGTKVEIK
notes: as for B1
B6: Antibody 51 (scFv, V domains shown)
VH: QVQLVQSGAEVKKPGASVKVSCKASGYTFTRYDINWVRQAPGQGLEWMGWMNPNSGNTGYAQKLQGRVTMTRDTSTSTVYMELSSLRSEDTAVYYCARERVGYCSSTSCLHPLDYWGQGTLVTVSS
VL: B5 VL with Q24R, S30R, Y32D, N34G, A50S, S53N, S93D, S94V, Y96L, Q100G
notes: as for B1
B7: Antibody 48 (scFv, V domains shown)
VH: QVQLVQSGAEVKKPGASVKVSCKASGYTFTSYYMHWVRQAPGQGLEWMGWMNPNSGNTGYAQKFQGRVTMTRDTSTSTVYMELSSLRSEDTAVYYCARDQMYSSYGMDVWGQGTTVTVSS
VL: B5 VL with Q24R, Q27E, G28S, S30T, Y32W, N34A, A50K, Q55E, S93G, S94T
notes: as for B1
B8: Antibody 52 (scFv, V domains shown)
VH: QVQLVQSGAEVKKPGASVKVSCKASGYTFTSYDINWVRQAPGQGLEWMGWISGYNGNTNYAQKFQGRVTMTRDTSTSTVYMELSSLRSEDTAVYYCARSFDWLLLLDYWGQGTLVTVSS
VL: DIQMTQSPSSLSASVGDRVTITCRASQSISSWLAWYQQKPGKAPKLLIYDATTLESGVPSRFSGSGSGTDFTLTISSLQPEDFATYYCQQYDSYPWTFGQGTKLEIK
notes: as for B1
B9: Antibody 45 (scFv, V domains shown)
VH: QVQLVQSGAEVKKPGASVKVSCKASGYTFTSYGISWVRQAPGQGLEWMGWISAYNGNTNYAQKFQGRVTMTRDTSTSTVYMELSSLRSEDTAVYYCARGTYYDYIWGSYRYSWFDYWGQGTLVTVSS
VL: not shown
notes: as for B1
B10: Antibody 75 (antibody, V domains shown)
VH: QVQLVQSGAEVKKPGSSVKVSCKASGGTFSNYAISWVRQAPGQGLEWMGGIIPIFGSTASYAQKFQGRVTITADESTSTAYMELSSLRSEDTAVYYCARGVGDDTLTDWGQGTLVTVSS
VL: DIVMTQSPLSLPVTPGEPASISCRSSQSLLHSNGYNYLDWYLQKPGQSPQLLIYAASSLQSGVPDRFSGSGSGTDFTLKISRVEAEDVGVYYCMQALQTPLTFGGGTKVEIK

biological target: T3, human SIRPγ on stably transfected CHO cells (human, UniProt Q9P1W8 29-387); assay: flow cytometry, myc-scFv PPE
T3 construct: also called Human SIRPγ CHO
T3 sequence (Q9P1W8 29-387 limits assumed): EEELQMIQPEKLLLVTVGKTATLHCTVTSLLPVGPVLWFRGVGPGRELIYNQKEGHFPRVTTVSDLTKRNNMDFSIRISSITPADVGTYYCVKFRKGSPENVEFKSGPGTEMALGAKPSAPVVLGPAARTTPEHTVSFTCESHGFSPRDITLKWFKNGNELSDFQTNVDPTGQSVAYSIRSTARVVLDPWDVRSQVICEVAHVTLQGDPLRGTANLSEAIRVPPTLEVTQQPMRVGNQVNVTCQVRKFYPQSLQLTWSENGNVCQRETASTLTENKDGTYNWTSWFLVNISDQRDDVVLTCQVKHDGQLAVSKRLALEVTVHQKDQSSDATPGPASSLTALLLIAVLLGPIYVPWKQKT
Method: (§1) Selected antibodies were tested for binding to stably transfected human SIRPγ, SIRPαV1, or SIRPβ1 (co-transfected with DAP12) Chinese hamster ovary (CHO) cells via flow cytometry. A titration of select antibodies was added to the cells and detected using a fluorescently labelled secondary anti-rat IgG antibody or anti-human IgG antibody. Graphs depict the median fluorescence intensity (MFI) at each concentration. FIGS. 5A and 5G show the binding curves of select antibodies to human SIRPγ, cynomolgus monkey SIRPγ, human SIRPα, cynomolgus monkey SIRPα, human SIRPβ1, or cynomolgus monkey SIRPβl-expressing CHO cells detected using an anti-rat IgG antibody. FIGS. 5B-5F and 5H-5L show the binding curves of select antibodies to human SIRPγ, cynomolgus monkey SIRPγ, human SIRPα, cynomolgus monkey SIRPα, human SIRPβ1, or cynomolgus monkey SIRPβ1-expressing CHO cells detected using an anti-human IgG antibody. […] For select antibodies, each myc-tagged SIRPγ scFv antibody as crude PPE was incubated with each of the SIRP-expressing cell lines stated above along with the parental CHO-K1 cell line. […] Fold change value <2.0 is considered a non-binder.

MFI fold change over parental CHO	Binder
14.8 fold	B1
16.4 fold	B2
16 fold	B3
5.97 fold	B4
42.4 fold	B5
20 fold	B6
12.1 fold	B7
14.7 fold	B8
24.3 fold	B9

Biological target: T1, cynomolgus monkey SIRPγ on CHO cells
Assay: flow cytometry, myc-scFv PPE
Method: as §1

MFI fold change over parental CHO	Binder
16.7 fold	B1
39.5 fold	B2
26.7 fold	B3
6.94 fold	B4
37.7 fold	B5
18.8 fold	B6
9.25 fold	B7
16.3 fold	B8
18.2 fold	B9

biological target: T4, human SIRPβ1 on CHO cells (co-transfected with DAP12) (human, UniProt O00241 30-398); assay: flow cytometry, CHO transfectants, anti-human IgG
T4 construct: whole, on cells; co-transfected with DAP12; also called Human SIRPβ1 CHO
T4 sequence (O00241 30-398): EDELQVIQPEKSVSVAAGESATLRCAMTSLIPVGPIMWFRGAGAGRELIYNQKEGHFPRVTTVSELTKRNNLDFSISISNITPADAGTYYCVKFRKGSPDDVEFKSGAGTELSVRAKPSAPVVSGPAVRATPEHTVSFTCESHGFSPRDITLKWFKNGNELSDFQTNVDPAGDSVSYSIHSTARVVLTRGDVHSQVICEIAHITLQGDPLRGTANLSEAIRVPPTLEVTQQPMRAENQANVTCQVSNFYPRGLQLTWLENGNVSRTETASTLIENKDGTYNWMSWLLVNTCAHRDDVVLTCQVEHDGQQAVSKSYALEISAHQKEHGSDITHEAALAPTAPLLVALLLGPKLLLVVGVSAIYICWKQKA
Method: as §1

binding result	Binder
no binding (tested: about 20 µg/mL)	B10

biological target: T2, cynomolgus monkey SIRPα on CHO cells; assay: flow cytometry, CHO transfectants, anti-human IgG
Method: as §1

binding result	Binder
no binding (tested: about 20 µg/mL)	B10

biological target: T5, human SIRPγ-His monomer protein (human, UniProt Q9P1W8 29-360); assay: BLI Octet, V5-scFv PPE captured, SIRP-His 500 nM
T5 construct: also called hSIRPγ
T5 sequence (Q9P1W8 29-360 limits assumed): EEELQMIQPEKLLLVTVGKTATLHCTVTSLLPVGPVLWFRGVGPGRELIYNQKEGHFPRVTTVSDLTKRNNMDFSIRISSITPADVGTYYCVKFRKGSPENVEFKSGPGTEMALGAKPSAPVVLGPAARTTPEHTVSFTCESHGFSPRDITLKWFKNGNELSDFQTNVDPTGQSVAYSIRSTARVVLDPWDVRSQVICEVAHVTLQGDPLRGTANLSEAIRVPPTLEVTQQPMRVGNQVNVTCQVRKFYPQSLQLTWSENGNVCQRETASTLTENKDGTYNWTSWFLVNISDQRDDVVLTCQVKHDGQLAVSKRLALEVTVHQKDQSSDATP

kdis	Binder
0.001 to 0.01 s⁻¹	B1
0.001 to 0.01 s⁻¹	B2
> 0.01 s⁻¹	B3
> 0.01 s⁻¹	B4
< 0.001 s⁻¹	B5
0.001 to 0.01 s⁻¹	B6
0.001 to 0.01 s⁻¹	B7
> 0.01 s⁻¹	B8
> 0.01 s⁻¹	B9

biological target: T4, human SIRPβ1 on CHO cells …; assay: flow cytometry

binding result	Binder
no binding (tested: fold change <2.0)	B1
no binding (tested: fold change <2.0)	B2
no binding (tested: fold change <2.0)	B3
no binding (tested: fold change <2.0)	B4
no binding (tested: fold change <2.0)	B5
no binding (tested: fold change <2.0)	B6
no binding (tested: fold change <2.0)	B7
no binding (tested: fold change <2.0)	B8
no binding (tested: fold change <2.0)	B9

biological target: T2, cynomolgus monkey SIRPα on CHO cells; assay: flow cytometry

binding result	Binder
no binding (tested: fold change <2.0)	B1
no binding (tested: fold change <2.0)	B2
no binding (tested: fold change <2.0)	B3
no binding (tested: fold change <2.0)	B4
no binding (tested: fold change <2.0)	B5
no binding (tested: fold change <2.0)	B6
no binding (tested: fold change <2.0)	B7
no binding (tested: fold change <2.0)	B8
no binding (tested: fold change <2.0)	B9
